Experimental data taken from the supplement of paper PMC10567573.

B1: SERPINB5 (parent)
chain: FPESETKECPFRVNKVCGAACSSK

Variants of: B1
Assay: protein stability index of a GFP-peptide fusion (GPS, HEK-293T) (PSI 1-6); higher = more stable
Conditions: c terminus: a fixed tail appended
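Also: lentivirally expressed fusions sorted by FACS into six bins by GFP to DsRed ratio, PSI derived from sequencing read proportions per bin multiplied by bin number.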

Variant	protein stability index
FPMSETKECPFRVNKVCGAACSSK	1.45
FPASETKECPFRVNKVCGAACSSK	1.42
FPFSETKECPFRVNKVCGAACSSK	1.75
FPHSETKECPFRVNKVCGAACSSK	1.55
FPCSETKECPFRVNKVCGAACSSK	2.4
FPNSETKECPFRVNKVCGAACSSK	2.4
FPQSETKECPFRVNKVCGAACSSK	1.75
FPGSETKECPFRVNKVCGAACSSK	1.88
FPWSETKECPFRVNKVCGAACSSK	2.29
FPESETKECQFRVNKVCGAACSSK	3.58
FPESETKECHFRVNKVCGAACSSK	3.62
FPESETKECTFRVNKVCGAACSSK	3.67
FPESETKECRFRVNKVCGAACSSK	3.63
FPESETKECMFRVNKVCGAACSSK	3.41
FPESETKECKFRVNKVCGAACSSK	3.75
FPESETKECDFRVNKVCGAACSSK	4.78
FPESETKECPCRVNKVCGAACSSK	3.71
FPESETKECPERVNKVCGAACSSK	4.43
FPESETKECPTRVNKVCGAACSSK	4.45
FPESETKECPARVNKVCGAACSSK	4.43
FPESETKECPYRVNKVCGAACSSK	2.99
FPESETKECPLRVNKVCGAACSSK	4.31
FPESETKECPFRVSKVCGAACSSK	2.45
FPESETKECPFRVGKVCGAACSSK	2.02

Variant	protein stability index
FPESETKECPFRVPKVCGAACSSK	2.47
FPESETKECPFRVDKVCGAACSSK	3.17
FPESETKECPFRVTKVCGAACSSK	2.5
FPESETKECPFRVAKVCGAACSSK	2.2
FPESETKECPFRVVKVCGAACSSK	2.08
FPESETKECPFRVNKVCGAACSST	2.48
FPESETKECPFRVNKVCGAACSSG	2.57
FPESETKECPFRVNKVCGAACSSR	2.05
FPESETKEHPFRVNKVCGAACSSK	1.83
FPESETKEGPFRVNKVCGAACSSK	2.82
FPESETKERPFRVNKVCGAACSSK	4.34
FPESETKEFPFRVNKVCGAACSSK	1.81
FPESETKEEPFRVNKVCGAACSSK	4.84
FPESETKEPPFRVNKVCGAACSSK	4.51
FPESETKEIPFRVNKVCGAACSSK	4.39
FPESETKELPFRVNKVCGAACSSK	3.6
FPESETKECPFRVNKVCGAAYSSK	2.51
FPESETKECPFRVNKVCGAANSSK	2.44
FPESETKECPFRVNKVCGAARSSK	2.56
FPESETKECPFRVNKVCGAAPSSK	2.23
FPESETKECPFRVNKVCGAAFSSK	1.94
FPESETKECPFRVNKVCGAAWSSK	1.38
FPESETKECPFRVNKVCGAAGSSK	2.69
FPESETKECPFRVNKVCGAAISSK	2.04

Variant	protein stability index
FPESETKECPFRVNKVWGAACSSK	1.76
FPESETKECPFRVNKVIGAACSSK	3.16
FPESETKECPFRVNKVEGAACSSK	2.98
FPESETKECPFRVNKVPGAACSSK	2.29
FPESETKECPFRVNKVNGAACSSK	2.99
FPESETKECPFRVNKVAGAACSSK	3.29
FPESETKECPFRVNKVRGAACSSK	2.48
FPESETKECPFRVNKVDGAACSSK	2.81
FPESETKECPFRVNKVKGAACSSK	3.12
FPESETKECPFRVNKVLGAACSSK	2.47
FPESETKECPFRVNKVSGAACSSK	3.13
FPESETKECPFRVNKVQGAACSSK	2.4
FPEVETKECPFRVNKVCGAACSSK	3.08
FPEHETKECPFRVNKVCGAACSSK	2.62
FPEMETKECPFRVNKVCGAACSSK	2.48
FPEEETKECPFRVNKVCGAACSSK	4.53
FPERETKECPFRVNKVCGAACSSK	2.76
FPEAETKECPFRVNKVCGAACSSK	2.46
FPETETKECPFRVNKVCGAACSSK	3.34
FPENETKECPFRVNKVCGAACSSK	3.17
FPEQETKECPFRVNKVCGAACSSK	3.83
FPESETKECPFRVNKVCGAACSVK	2.42
FPESETKECPFRVNKVCGAACSFK	2.23
FPESETKECPFRVNKVCGAACSWK	1.93

Variant	protein stability index
FPESETKECPFRVNKVCGAACSTK	2.19
FPESETKECPFRVNKVCGAACSAK	2.41
FPESETKECPFRVNKVCGAACSGK	2.4
FPESETKECPFRVNKVCGAACSMK	2.39
FPESETKECPFRVNKVCGAACSYK	2.29
FPESETKGCPFRVNKVCGAACSSK	1.9
FPESETKFCPFRVNKVCGAACSSK	1.97
FPESETKLCPFRVNKVCGAACSSK	2.33
FPESETKYCPFRVNKVCGAACSSK	1.93
FPESETKNCPFRVNKVCGAACSSK	2.17
FPESETKCCPFRVNKVCGAACSSK	2.23
FPESETKSCPFRVNKVCGAACSSK	2.14
FPESETKECPFMVNKVCGAACSSK	2.86
FPESETKECPFIVNKVCGAACSSK	2.57
FPESETKECPFFVNKVCGAACSSK	3.56
FPESETKECPFSVNKVCGAACSSK	3.95
FPESETKECPFQVNKVCGAACSSK	3.36
FPESETKECPFLVNKVCGAACSSK	2.68
FPESETKECPFPVNKVCGAACSSK	4.75
FPESETKECPFYVNKVCGAACSSK	3.43
FPESEEKECPFRVNKVCGAACSSK	3.47
FPESEIKECPFRVNKVCGAACSSK	2.82
